Where “and” joins values, the source holds several entries; their conditions need not be identical. Equal values may be shown once.
Legend:
[1] = target: 人CLDN18.2(hCLDN18.2) (human) (UniProt P56856); assay: flow cytometry, CF633-labelled antibody 2.5μg/ml on hCLDN18.2+cell; background
[2] = target: 鼠CLDN18.2(mCLDN18.2) (mouse) (UniProt P56857); assay: cell ELISA on fixed mCLDN18.2+cell; background
[3] = target: 人CLDN18.2(hCLDN18.2) (human) (UniProt P56856); assay: flow cytometry, CF633-labelled antibody 10μg/ml on hCLDN18.2+cell; range over the binding value and the time points
[4] = target: 人CLDN18.2(hCLDN18.2) (human) (UniProt P56856); assay: flow cytometry, CF488-labelled antibody 10μg/ml on hCLDN18.2+cell; range over the binding value and the time points

UniProt P56857, sequence (P56857 other isoform, or with tags, fused parts or gaps, form in doubt): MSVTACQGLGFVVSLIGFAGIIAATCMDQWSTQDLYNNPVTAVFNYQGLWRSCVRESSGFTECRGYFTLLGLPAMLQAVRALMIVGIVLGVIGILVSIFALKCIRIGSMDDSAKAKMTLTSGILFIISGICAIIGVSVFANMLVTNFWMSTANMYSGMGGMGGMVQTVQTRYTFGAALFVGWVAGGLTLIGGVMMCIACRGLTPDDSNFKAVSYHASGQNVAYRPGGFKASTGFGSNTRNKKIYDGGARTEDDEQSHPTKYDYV

结合值 (FACS读值) [1]: 932
Emax [2]: 0.19
荧光强度值(本底) [3]: 23.2 and 14.9
荧光强度值(本底) [4]: 1280 to 3480
Substance: Neg IgG (和靶点没有结合的非特异性抗体) (antibody)
